{
  "source": "patent US20180016327A1",
  "about": "(Chugai, published 2018)",
  "binders": {"B1": {"name": "CFP0018 (antibody, V domains shown)", "VH": "QVQLVQSGAEVKKPGSSVKVSCKASGGTFSSYAISWVRQAPGQGLEWMGGIIPIFGTANYAQKFQGRVTITADESTSTAYMELSSLRSEDTAVYYCARQLYGYYELDIWGQGTLVTVSS", "VL": "DIQMTQSPSSLSASVGDRVTITCRASQSISDDLAWYQQKPGKAPKLLIYEASSLQSGVPSRFSGSGSGTDFTLTISSLQPEDFATYYCQQYNSYPLTFGQGTKVEIK", "notes": "IgG format"}, "B2": {"name": "CFP0017 (antibody, V domains shown)", "VH": "B1 VH with Q99G, L100G, Y101W, G102W, Y103G, Y104G, E105A, I108Y", "VL": "B1 VL with S30E, E50H, Y91S, N92D", "notes": "IgG format"}, "B3": {"name": "CFP0017 17L 30A (antibody, V domains shown)", "VH": "B1 VH with Q99G, L100G, Y101W, G102W, Y103G, Y104G, E105A, I108Y", "VL": "B1 VL with S30A, E50H, Y91S, N92D"}, "B4": {"name": "CFP0017 17L 30D (antibody, V domains shown)", "VH": "B1 VH with Q99G, L100G, Y101W, G102W, Y103G, Y104G, E105A, I108Y", "VL": "B1 VL with S30D, E50H, Y91S, N92D"}, "B5": {"name": "CFP0017 17L 30H (antibody, V domains shown)", "VH": "B1 VH with Q99G, L100G, Y101W, G102W, Y103G, Y104G, E105A, I108Y", "VL": "B1 VL with S30H, E50H, Y91S, N92D"}, "B6": {"name": "CFP0017 17L 30S (antibody, V domains shown)", "VH": "B1 VH with Q99G, L100G, Y101W, G102W, Y103G, Y104G, E105A, I108Y", "VL": "B1 VL with E50H, Y91S, N92D"}, "B7": {"name": "CFP0017 17L 50A (antibody, V domains shown)", "VH": "B1 VH with Q99G, L100G, Y101W, G102W, Y103G, Y104G, E105A, I108Y", "VL": "B1 VL with S30E, E50A, Y91S, N92D"}, "B8": {"name": "CFP0017 17L 50E (antibody, V domains shown)", "VH": "B1 VH with Q99G, L100G, Y101W, G102W, Y103G, Y104G, E105A, I108Y", "VL": "B1 VL with S30E, Y91S, N92D"}, "B9": {"name": "CFP0017 17L 91H (antibody, V domains shown)", "VH": "B1 VH with Q99G, L100G, Y101W, G102W, Y103G, Y104G, E105A, I108Y", "VL": "B1 VL with S30E, E50H, Y91H, N92D"}, "B10": {"name": "CFP0017 17L 91R (antibody, V domains shown)", "VH": "B1 VH with Q99G, L100G, Y101W, G102W, Y103G, Y104G, E105A, I108Y", "VL": "B1 VL with S30E, E50H, Y91R, N92D"}, "B11": {"name": "CFP0017 17L 91Y (antibody, V domains shown)", "VH": "B1 VH with Q99G, L100G, Y101W, G102W, Y103G, Y104G, E105A, I108Y", "VL": "B1 VL with S30E, E50H, N92D"}, "B12": {"name": "CFP0017 17L 92N (antibody, V domains shown)", "VH": "B1 VH with Q99G, L100G, Y101W, G102W, Y103G, Y104G, E105A, I108Y", "VL": "B1 VL with S30E, E50H, Y91S"}, "B13": {"name": "CFP0017 17L 92S (antibody, V domains shown)", "VH": "B1 VH with Q99G, L100G, Y101W, G102W, Y103G, Y104G, E105A, I108Y", "VL": "B1 VL with S30E, E50H, Y91S, N92S"}, "B14": {"name": "CFP0018 18L 30A (antibody, V domains shown)", "VH": "B1 VH", "VL": "B1 VL with S30A"}, "B15": {"name": "CFP0018 18L 30D (antibody, V domains shown)", "VH": "B1 VH", "VL": "B1 VL with S30D"}, "B16": {"name": "CFP0018 18L 30E (antibody, V domains shown)", "VH": "B1 VH", "VL": "B1 VL with S30E"}, "B17": {"name": "CFP0018 18L 30F (antibody, V domains shown)", "VH": "B1 VH", "VL": "B1 VL with S30F"}, "B18": {"name": "CFP0018 18L 30H (antibody, V domains shown)", "VH": "B1 VH", "VL": "B1 VL with S30H"}, "B19": {"name": "CFP0018 18L 30N (antibody, V domains shown)", "VH": "B1 VH", "VL": "B1 VL with S30N"}, "B20": {"name": "CFP0018 18L 30P (antibody, V domains shown)", "VH": "B1 VH", "VL": "B1 VL with S30P"}, "B21": {"name": "CFP0018 18L 30Q (antibody, V domains shown)", "VH": "B1 VH", "VL": "B1 VL with S30Q"}, "B22": {"name": "CFP0018 18L 30T (antibody, V domains shown)", "VH": "B1 VH", "VL": "B1 VL with S30T"}, "B23": {"name": "CFP0018 18L 30Y (antibody, V domains shown)", "VH": "B1 VH", "VL": "B1 VL with S30Y"}, "B24": {"name": "CFP0018 18L 31N (antibody, V domains shown)", "VH": "B1 VH", "VL": "B1 VL with D31N"}, "B25": {"name": "CFP0018 18L 32N (antibody, V domains shown)", "VH": "B1 VH", "VL": "B1 VL with D32N"}, "B26": {"name": "CFP0018 18L 32Q (antibody, V domains shown)", "VH": "B1 VH", "VL": "B1 VL with D32Q"}, "B27": {"name": "CFP0018 18L 50D (antibody, V domains shown)", "VH": "B1 VH", "VL": "B1 VL with E50D"}, "B28": {"name": "CFP0018 18L 53H (antibody, V domains shown)", "VH": "B1 VH", "VL": "B1 VL with S53H"}, "B29": {"name": "CFP0018 18L 53N (antibody, V domains shown)", "VH": "B1 VH", "VL": "B1 VL with S53N"}, "B30": {"name": "CFP0018 18L 53T (antibody, V domains shown)", "VH": "B1 VH", "VL": "B1 VL with S53T"}, "B31": {"name": "CFP0018 18L 92D (antibody, V domains shown)", "VH": "B1 VH", "VL": "B1 VL with N92D"}, "B32": {"name": "CFP0018 18L 92E (antibody, V domains shown)", "VH": "B1 VH", "VL": "B1 VL with N92E"}, "B33": {"name": "CFP0018 18L 92P (antibody, V domains shown)", "VH": "B1 VH", "VL": "B1 VL with N92P"}, "B34": {"name": "CFP0018 18L 92Q (antibody, V domains shown)", "VH": "B1 VH", "VL": "B1 VL with N92Q"}, "B35": {"name": "CFP0018 18L 92S (antibody, V domains shown)", "VH": "B1 VH", "VL": "B1 VL with N92S"}, "B36": {"name": "CFP0018 18L 92T (antibody, V domains shown)", "VH": "B1 VH", "VL": "B1 VL with N92T"}, "B37": {"name": "CFP0018 18L 93D (antibody, V domains shown)", "VH": "B1 VH", "VL": "B1 VL with S93D"}, "B38": {"name": "CFP0018 18L 93G (antibody, V domains shown)", "VH": "B1 VH", "VL": "B1 VL with S93G"}, "B39": {"name": "CFP0018 18L 93N (antibody, V domains shown)", "VH": "B1 VH", "VL": "B1 VL with S93N"}, "B40": {"name": "CFP0018 18L 93R (antibody, V domains shown)", "VH": "B1 VH", "VL": "B1 VL with S93R"}, "B41": {"name": "CFP0018 18L 94F (antibody, V domains shown)", "VH": "B1 VH", "VL": "B1 VL with Y94F"}, "B42": {"name": "CFP0018 18L 94H (antibody, V domains shown)", "VH": "B1 VH", "VL": "B1 VL with Y94H"}, "B43": {"name": "CFP0018 18L 94W (antibody, V domains shown)", "VH": "B1 VH", "VL": "B1 VL with Y94W"}, "B44": {"name": "CFP0018 18L 96F (antibody, V domains shown)", "VH": "B1 VH", "VL": "B1 VL with L96F"}, "B45": {"name": "CFP0018 18L 96H (antibody, V domains shown)", "VH": "B1 VH", "VL": "B1 VL with L96H"}, "B46": {"name": "CFP0018 18L 96I (antibody, V domains shown)", "VH": "B1 VH", "VL": "B1 VL with L96I"}},
  "note": "Changes are numbered by the printed parent chain.",
  "data": [
    {"biological_target": "T1, human C5 (human, UniProt P01031 19-673; P01031 678-1676, Beta and alpha chains are disulfide-linked and the protein is glycosylated.)", "T1 construct": "Either in-house recombinant C5 or plasma derived C5 (CALBIOCHEM) was used; also called recombinant human C5; plasma derived human C5", "experiment": "Biacore, captured antibody, pH 7.4, 37 C;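 also: biacore binding response of anti-C5 antibody light chain variants captured on chip with human C5 injected, ACES running buffer containing 1.2 mM CaCl₂, parent light chain antibody set to 100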", "units": {"% binding (parent = 100)": "%"}, "description": "The light chain variants were tested for the binding affinity to C5 at pH 7.4 and at 37 degrees C. using Biacore T200 instrument (GE Healthcare) or Biacore 4000 instrument (GE Healthcare). […] Anti-C5 antibodies were captured on an immobilized molecule, and then human C5 was injected. The running buffer used was pH 7.4 ACES Buffer containing 1.2 mM Ca (20 mM ACES, 150 mM NaCl, 1.2 mM CaCl₂, 0.05% Tween 20). A value, % binding, was determined by normalizing binding response with that of antibody comprising parent light chain as 100.", "values": [
      {"binder": "B1", "% binding (parent = 100)": 100},
      {"binder": "B2", "% binding (parent = 100)": 100},
      {"binder": "B3", "% binding (parent = 100)": 79.9},
      {"binder": "B4", "% binding (parent = 100)": 89.4},
      {"binder": "B5", "% binding (parent = 100)": 52.1},
      {"binder": "B6", "% binding (parent = 100)": 79.1},
      {"binder": "B7", "% binding (parent = 100)": 3.3},
      {"binder": "B8", "% binding (parent = 100)": 1},
      {"binder": "B9", "% binding (parent = 100)": 21.8},
      {"binder": "B10", "% binding (parent = 100)": -4},
      {"binder": "B11", "% binding (parent = 100)": 0.3},
      {"binder": "B12", "% binding (parent = 100)": 36.4},
      {"binder": "B13", "% binding (parent = 100)": 79},
      {"binder": "B14", "% binding (parent = 100)": 21.2},
      {"binder": "B15", "% binding (parent = 100)": 17},
      {"binder": "B16", "% binding (parent = 100)": 20.8},
      {"binder": "B17", "% binding (parent = 100)": 85.2},
      {"binder": "B18", "% binding (parent = 100)": 87.2},
      {"binder": "B19", "% binding (parent = 100)": 201},
      {"binder": "B20", "% binding (parent = 100)": 111},
      {"binder": "B21", "% binding (parent = 100)": 130},
      {"binder": "B22", "% binding (parent = 100)": 90.7},
      {"binder": "B23", "% binding (parent = 100)": 82.4},
      {"binder": "B24", "% binding (parent = 100)": 130},
      {"binder": "B25", "% binding (parent = 100)": 527},
      {"binder": "B26", "% binding (parent = 100)": 21.9},
      {"binder": "B27", "% binding (parent = 100)": 22.2},
      {"binder": "B28", "% binding (parent = 100)": 94.4},
      {"binder": "B29", "% binding (parent = 100)": 91.2},
      {"binder": "B30", "% binding (parent = 100)": 44.5},
      {"binder": "B31", "% binding (parent = 100)": 31.7},
      {"binder": "B32", "% binding (parent = 100)": 40.9},
      {"binder": "B33", "% binding (parent = 100)": 64.5},
      {"binder": "B34", "% binding (parent = 100)": 125},
      {"binder": "B35", "% binding (parent = 100)": 104},
      {"binder": "B36", "% binding (parent = 100)": 95.1},
      {"binder": "B37", "% binding (parent = 100)": 23.8},
      {"binder": "B38", "% binding (parent = 100)": 79.1},
      {"binder": "B39", "% binding (parent = 100)": 107},
      {"binder": "B40", "% binding (parent = 100)": 136},
      {"binder": "B41", "% binding (parent = 100)": 28.6},
      {"binder": "B42", "% binding (parent = 100)": 17.6},
      {"binder": "B43", "% binding (parent = 100)": 33.7},
      {"binder": "B44", "% binding (parent = 100)": 31.8},
      {"binder": "B45", "% binding (parent = 100)": 114},
      {"binder": "B46", "% binding (parent = 100)": 56}
    ]}
  ]
}
